These results are taken from the supplement of paper PMC9112550, “Optimization of the antimicrobial peptide Bac7 by deep mutational scanning” (BMC Biology, 2022).

The data set deals with Escherichia coli TOP10. The experiment in a line: shrunken log2 fold change of peptide-encoding DNA abundance (4.5 h post-induction vs induction); higher = less antimicrobial activity (less host growth inhibition). Conditions: time post-induction: 4.5 h; library: site-saturation at positions 5, 18, 19, 20.
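Also: peptides expressed intracellularly from a pBAD plasmid library in pooled LB shake-flask culture, induced with 0.3% L-arabinose, DNA abundance read by NGS, three biological replicates, DESeq2 with apeglm shrinkage.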

As for RRIRSRPPRLPRPRPRPWPQPRP, the “shrunken log2 fold change” value is 0.0548. The result for RRIRPRPPRLPRPRPRPWSVPRP reads -0.101. As for RRIRRRPPRLPRPRPRPAIMPRP, the figure is 0.275; as for RRIRMRPPRLPRPRPRPLREPRP, 3.88; as for RRIRRRPPRLPRPRPRPNCEPRP, 0.227. The result for RRIRCRPPRLPRPRPRPVSQPRP reads 0.201; that for RRIRFRPPRLPRPRPRPLPWPRP, -0.195. Take RRIRARPPRLPRPRPRPACGPRP: the “shrunken log2 fold change” value worked out at 0.582. Consider RRIRRRPPRLPRPRPRPEEEPRP, for which the “shrunken log2 fold change” value stood at 0.855. For RRIRVRPPRLPRPRPRPFCDPRP, the “shrunken log2 fold change” value was -0.218.

For RRIRSRPPRLPRPRPRPTAYPRP, the “shrunken log2 fold change” value was -0.00955. The result for RRIRFRPPRLPRPRPRPDYVPRP reads -0.00174; that for RRIRYRPPRLPRPRPRPYVDPRP, -0.0075.

In the case of RRIRKRPPRLPRPRPRPSKVPRP, the “shrunken log2 fold change” value was -0.131.

Turning to RRIRIRPPRLPRPRPRPGYNPRP, the “shrunken log2 fold change” value is -1.28. With RRIRRRPPRLPRPRPRPDQIPRP, the “shrunken log2 fold change” value is -0.122. Turning to RRIRIRPPRLPRPRPRPDDNPRP, the “shrunken log2 fold change” value is -0.27.

Regarding RRIRSRPPRLPRPRPRPYFMPRP, the “shrunken log2 fold change” value was -0.848. As for RRIRSRPPRLPRPRPRPVMQPRP, the figure is 0.138; as for RRIRFRPPRLPRPRPRPGRTPRP, 0.301; as for RRIRQRPPRLPRPRPRPRELPRP, 0.0285.

Turning to RRIRNRPPRLPRPRPRPTAVPRP, the “shrunken log2 fold change” value stood at 0.495.

On to RRIRYRPPRLPRPRPRPQRDPRP, for which the “shrunken log2 fold change” value is -0.256. The result for RRIRPRPPRLPRPRPRPRFYPRP reads 0.0111; that for RRIRCRPPRLPRPRPRPAHVPRP, 0.019; that for RRIRIRPPRLPRPRPRPIAVPRP, -0.0939. Regarding RRIRWRPPRLPRPRPRPWGDPRP, the “shrunken log2 fold change” value worked out at 0.0345. As for RRIRGRPPRLPRPRPRPWVYPRP, the figure is -0.0165; as for RRIRTRPPRLPRPRPRPKFSPRP, -0.189.

In the case of RRIRCRPPRLPRPRPRPVSRPRP, the “shrunken log2 fold change” value stood at 0.344. As for RRIRLRPPRLPRPRPRPSDRPRP, the figure is -0.147; as for RRIRERPPRLPRPRPRPKFFPRP, -0.0207; as for RRIRERPPRLPRPRPRPYKLPRP, -1.4.

Turning to RRIRYRPPRLPRPRPRPFQMPRP, the “shrunken log2 fold change” value is -0.143. The result for RRIRFRPPRLPRPRPRPPTDPRP reads 0.414; that for RRIRMRPPRLPRPRPRPKGMPRP, 1.37.

For RRIRARPPRLPRPRPRPSHVPRP, the “shrunken log2 fold change” value was -0.306.

As to RRIRVRPPRLPRPRPRPMAFPRP, the “shrunken log2 fold change” value is -0.00965. The result for RRIRPRPPRLPRPRPRPVQGPRP reads -0.0469; that for RRIRNRPPRLPRPRPRPHYKPRP, -0.333; that for RRIRHRPPRLPRPRPRPTEYPRP, -0.301.

In the case of RRIRCRPPRLPRPRPRPTCPPRP, the “shrunken log2 fold change” value is -0.26.

On to RRIRSRPPRLPRPRPRPPHMPRP, for which the “shrunken log2 fold change” value is -0.0602. The result for RRIRGRPPRLPRPRPRPNEPPRP reads 0.154; that for RRIRLRPPRLPRPRPRPLIGPRP, 0.0224. As for RRIRIRPPRLPRPRPRPYTKPRP, the figure is -0.203. The result for RRIRLRPPRLPRPRPRPYPAPRP reads -0.368; that for RRIRLRPPRLPRPRPRPWQTPRP, -0.0245; that for RRIRGRPPRLPRPRPRPSETPRP, 0.223. For the sequence RRIRKRPPRLPRPRPRPWSDPRP, the “shrunken log2 fold change” value is -0.0989. Turning to RRIRYRPPRLPRPRPRPFFHPRP, the “shrunken log2 fold change” value was -1.2. As for RRIRSRPPRLPRPRPRPAFGPRP, the figure is 0.291.

Consider RRIRGRPPRLPRPRPRPIKVPRP, for which the “shrunken log2 fold change” value was 0.356.

In the case of RRIRERPPRLPRPRPRPSMQPRP, the “shrunken log2 fold change” value was -0.759. As for RRIRDRPPRLPRPRPRPKGSPRP, the figure is -0.145; as for RRIRRRPPRLPRPRPRPSYRPRP, -0.142.

For the sequence RRIRYRPPRLPRPRPRPFWSPRP, the “shrunken log2 fold change” value was -0.363. As for RRIRHRPPRLPRPRPRPNIFPRP, the figure is -0.0903.

For RRIRDRPPRLPRPRPRPTFDPRP, the “shrunken log2 fold change” value was 0.853. As for RRIRLRPPRLPRPRPRPPDMPRP, the “shrunken log2 fold change” value is -0.111.

As for RRIRKRPPRLPRPRPRPEVQPRP, the “shrunken log2 fold change” value turned out to be 3.94. For RRIRARPPRLPRPRPRPSLFPRP, the “shrunken log2 fold change” value stood at 0.349. As for RRIRGRPPRLPRPRPRPLFAPRP, the figure is 1.36; as for RRIRTRPPRLPRPRPRPGKPPRP, 0.0978.

RRIRLRPPRLPRPRPRPQESPRP: the “shrunken log2 fold change” value was 0.133. Turning to RRIRYRPPRLPRPRPRPFIIPRP, the “shrunken log2 fold change” value is -1.23. As for RRIRMRPPRLPRPRPRPFKCPRP, the “shrunken log2 fold change” value is -0.0731. As for RRIRFRPPRLPRPRPRPNNQPRP, the figure is -0.559; as for RRIRARPPRLPRPRPRPVQFPRP, -0.0854; as for RRIRMRPPRLPRPRPRPSERPRP, 0.365. For RRIRNRPPRLPRPRPRPFHTPRP, the “shrunken log2 fold change” value was -0.232. The result for RRIRFRPPRLPRPRPRPCVEPRP reads -0.267; that for RRIRYRPPRLPRPRPRPQPPPRP, 0.163.

As for RRIRMRPPRLPRPRPRPYMKPRP, the “shrunken log2 fold change” value was -0.0154. The result for RRIRHRPPRLPRPRPRPTDDPRP reads 0.0853; that for RRIRQRPPRLPRPRPRPGGWPRP, 0.45; that for RRIRKRPPRLPRPRPRPHHDPRP, -0.121.

For RRIRYRPPRLPRPRPRPSKGPRP, the “shrunken log2 fold change” value is -0.203. As for RRIRHRPPRLPRPRPRPHDQPRP, the figure is -0.104; as for RRIRHRPPRLPRPRPRPWDPPRP, -0.243.

Turning to RRIRTRPPRLPRPRPRPELVPRP, the “shrunken log2 fold change” value was determined as 0.0224.

As for RRIRQRPPRLPRPRPRPFWGPRP, the “shrunken log2 fold change” value is -0.0312.

For RRIRYRPPRLPRPRPRPQIEPRP, the “shrunken log2 fold change” value is 0.0413.

For the sequence RRIRQRPPRLPRPRPRPYNRPRP, the “shrunken log2 fold change” value is -0.0882. Consider RRIRTRPPRLPRPRPRPWAYPRP, for which the “shrunken log2 fold change” value was 0.013. The result for RRIRSRPPRLPRPRPRPLSIPRP reads -0.447; that for RRIRGRPPRLPRPRPRPKYVPRP, 0.0402; that for RRIRPRPPRLPRPRPRPNVVPRP, -0.0229. The result for RRIRDRPPRLPRPRPRPIQSPRP reads -0.0949; that for RRIRIRPPRLPRPRPRPMFMPRP, -0.383. As for RRIRNRPPRLPRPRPRPMKLPRP, the figure is -0.282.
